Patent US20240368269A1 (Memorial Sloan Kettering, published 2024)
Positions count from the first letter of the chain named.

T1: DLL3 (target in the Fab-Zap internalization assay) (UniProt Q9NYJ7 27-618, limits assumed)
T1 sequence (looked up): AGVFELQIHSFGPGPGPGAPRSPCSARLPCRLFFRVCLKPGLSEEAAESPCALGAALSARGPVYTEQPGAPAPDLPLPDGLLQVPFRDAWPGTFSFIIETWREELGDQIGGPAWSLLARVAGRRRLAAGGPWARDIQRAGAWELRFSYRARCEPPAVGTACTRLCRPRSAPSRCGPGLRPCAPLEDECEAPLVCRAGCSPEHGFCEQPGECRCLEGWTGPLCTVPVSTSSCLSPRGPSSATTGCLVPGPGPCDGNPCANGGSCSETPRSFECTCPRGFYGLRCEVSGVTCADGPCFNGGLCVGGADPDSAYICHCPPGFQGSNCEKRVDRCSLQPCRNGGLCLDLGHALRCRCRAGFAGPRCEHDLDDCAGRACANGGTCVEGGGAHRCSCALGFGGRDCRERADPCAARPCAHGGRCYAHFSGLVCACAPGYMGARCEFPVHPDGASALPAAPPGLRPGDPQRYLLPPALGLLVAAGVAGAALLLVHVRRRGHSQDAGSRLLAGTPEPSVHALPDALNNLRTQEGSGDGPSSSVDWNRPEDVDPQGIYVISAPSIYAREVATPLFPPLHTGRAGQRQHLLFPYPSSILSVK

B1: F9 (antibody, V domains shown)
VH: QVQLVQSGAEVKKPGASVQVSCKASGYTFTSYYMHWVRQAPGQGLEWMGIINPSGGSTSYAQKFQGRVTMTRDTSTSTVYMELSSLRSEDTAVYYCARQGGAQWLVLAFDIWGQGTMVTVSS
VL: EIVLTQSPGTLSLSPGERATLSCRASQSVSSYLAWYQQKPGQPPRLLIYGASSRATGIPDRFSGGGSGTDFTLTISRLEPEDFAVYYCQQYDSSPYTFGQGTKLEIK
B2: G16 (antibody, V domains shown)
VH: B1 VH
VL: B1 VL with P43A, D92G
B3: A18 (antibody, V domains shown)
VH: QVTLRESGPALVKSTQTLTLTCTFSGFSLSTSGMCVSWIRQTPGKALEWLALIDWDDNKYYSTSLKTRLIISKDTSKNQVVLTMTNMEPVDTATYYCARIRGYSGSYDAFDIWGQGTMVTVSS
VL: DIVMTQSPLSLPVTPGEPASISCRSSQSLLHSNGYNYLDWYLQKPGQSPHILLYLGSNRAPGVPDRFSGSGSGTDFTLKISRVEAEDVGVYYCMQALQTPFTFGPGTKVDIK
B4: B22 (antibody, V domains shown)
VH: EVQLVESGGGLVQPGGSLRLSCAASGFTFNNFWMSWVRQAPGKGLEWVANIKQDGSEKYYVDSVKGRFTISRDNAKNSLYLQMNSLRAEDTAVYYCARESYFDLWGRGTLVTVSS
VL: QAVVTQESALTTSPGETVTLTCRSSTGAVTTSNYANWVQEKPDHLFTGLIGGTNNRAPGVPARFSGSLIGDKAALTITGAQTEDEAIYFCALWYSNRWVFGGGTKLTVL
B5: D8 (antibody, V domains shown)
VH: QVQLVQSGAEVKKPGASVKVSCKASGYTFTTYYMHWVRQAPGQGLEWMGIINPSGGSTSYAQKFQGRVTMTRDTSTSTVYMELSSLRSEDTAVYYCARQGHYIGNYLDYWGQGTLVTVSS
VL: not shown
B6: L12 (antibody, V domains shown)
VH: B5 VH with T31S, T58R, G100L, H101E, Y102L, I103L, Y106A, L107F, Y109I, L115M
VL: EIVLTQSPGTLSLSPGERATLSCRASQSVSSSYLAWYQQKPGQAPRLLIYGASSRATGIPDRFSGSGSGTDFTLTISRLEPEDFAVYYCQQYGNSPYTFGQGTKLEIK
B7: C22 (antibody, V domains shown)
VH: B5 VH with T31S, Q99V, G100A, H101D, Y102I, I103V, N105A, Y106T, L107F
VL: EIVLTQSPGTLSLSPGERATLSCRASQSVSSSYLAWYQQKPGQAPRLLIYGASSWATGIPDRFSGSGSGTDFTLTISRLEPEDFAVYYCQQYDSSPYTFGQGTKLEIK
B8: J23 (antibody, V domains shown)
VH: B5 VH with T31S, P53Y, T58K, A92G, H101R, I103S, N105S
VL: not shown
B9: M11 (antibody, V domains shown)
VH: QVQLVQSGAEVKKPGASVKVSCKASGYTFTSYYIHWVRQAPGQGLEWMGIINPSGGSKSYAQKFQGRVTMTRDTSTGTVYMELSSLRSEDTAVYYCAGQLELLGNAFDIWGQGTMVTVSS
VL: not shown
B10: C8 (antibody, V domains shown)
VH: EVQLVESGGGLVQPGGSQRLSCAASGFTFSSYWMNWVRQAPGKGLEWVANIKEDGSEKYYVDSVKGRFTISRDNAKNSLYLQMNSLRAEDTAVYYCARDPGWAPFDYWGQGTLVTVSS
VL: DIQMSQSPSSLSASVGDRVTITCRASQGISNYLAWFQQKPGKAPKSLIYAASSLQSGVPSKFSGSGSGTDFTLAISSLQPEDFATYYCQQYNSFPYTFGQGTTLEIK
B11: J8 (antibody, V domains shown)
VH: QVHLVQSGAEVKKPGASVKVSCKASGYTFTIYYIHWVRQAPGQGLEWMGIINPSGGSTSYAQKFQGRVTMTRDTSTSTVYMELSSLRSEDTAVYYCSGNDYVDYVTTDYYGMDVWGQGTTVTVSS
VL: B10 VL with S5T, A74T, F94S, T103K
B12: O24 (antibody, V domains shown)
VH: QVQLVQSGAEVKKPGASVKVSCKASGYTFTSYYLHWVRQAPGHGLEWMAIINPSGGSTSYAQKFLGRVTMTRDTSTNTVYMELSSLRSEDTAVYYCARERQQLDYYYFAMDVWGQGTTVTVSS
VL: B10 VL with S5T, A74T, F94Y, Y96P, T103K, L104V
B13: O18 (antibody, V domains shown)
VH: QVQLQESGPGLVKPSETLSLTCTVSGGSINSYYWSWIRQPPGKGLEWIGYIFYSGITNYNPSLKSRVTISLDTSKNQFSLKLSSVTAADTAVYYCARIGVAGFYFDYWGQGTLVTVSS
VL: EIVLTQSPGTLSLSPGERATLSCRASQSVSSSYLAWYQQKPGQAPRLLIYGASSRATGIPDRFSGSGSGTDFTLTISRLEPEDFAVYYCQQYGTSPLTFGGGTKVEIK
B14: G3 (antibody, V domains shown)
VH: QVQLQESGPGLVKPSETLFLTCTVSGGSISSYYWTWIRQPAGKGLEWIGRIYTSGSTNYNPSLKSRVTMSVDTSKNQFSLKLSSVTAADTAVYYCAREDWESWTFDIWGQGTMVTVSS
VL: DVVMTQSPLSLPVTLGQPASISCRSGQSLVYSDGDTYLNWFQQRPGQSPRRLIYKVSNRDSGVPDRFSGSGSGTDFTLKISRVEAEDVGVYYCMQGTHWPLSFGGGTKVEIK
B15: F21 (antibody, V domains shown)
VH: EVQLVESGGGLVQPGGSLRLSCAASGFTFSSYWMSWVRQAPGKGLEWVANIKQDGSEKYYVDSVKGRFTISRDNAKNSLYLQMNSLRAEDTAVYYCAREWLRFGGLVYWGQGTLVTVSS
VL: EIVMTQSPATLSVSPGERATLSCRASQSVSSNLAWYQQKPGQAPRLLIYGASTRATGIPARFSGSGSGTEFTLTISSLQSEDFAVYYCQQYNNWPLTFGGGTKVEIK
B16: K19 (antibody, V domains shown)
VH: QVQLVQSGAEVKKPGASLKVSCKTSGYTFNSYYMHWVRQAPGQGLEWMGINNPSGGTTSYAQKFQGRVTMTRDTSTSTVYMELSSLRSEDTAVYYCARDWGEQYGMDVWGQGTTVTVSS
VL: not shown
B17: P4 (antibody, V domains shown)
VH: EVQLVESGGGLVKPGGSLRLSCAASGFTFSFYSMNWVRQAPGKGLEWVSSISSSSSYIYYADSVKGRFTISRDNAKNSLYLQMNSLRAEDTAVYYCARNYDFWRGAFDIWGQGTMVTVSS
VL: not shown
B18: N10 (antibody, V domains shown)
VH: QVQLVQSGAEVKKPGASVKVSCKASGYTFTGYYMHWVRQAPGQGLEWMGWINPHSGAPNSAQKFQVRVTMTRDTSISTAYMELSRLRSDDTAVYYCARDSSGWYGDAFDIWGQGTMVTVSS
VL: not shown
B19: E23 (antibody, V domains shown)
VH: QVQLVQSGAEVRKPGASVKVSCKASGYTFTGYYMHWVRQAPGQGLEWMGWINSYSGGANYAQKFQDRVTMTRDTSVSTASMELSRLRSDDTAVYYCARDGSGWYGSYFDFWGQGTLVTVSS
VL: DIVMTQTPLSSPVTLGQPASISCRSSQSLVHSDGNTYLSWLQQRPGQPPRLLIYKISNRFSGVPDRFSGSGAGTDFTLKISRVEAEDVGFYYCIQTTQFPLTFGGGTKVEIK
B20: L22 (antibody, V domains shown)
VH: EVQLLESGGGLVQPGGSLRLSCAASGFTFSSYAMGWVRQTPGKGLEWVSTISGRGGDTYYADSVKGRFTISRDNSKNTLYLQMNSLRAEDTAIYYCAKERGLGFDYWGQGTLVTVSS
VL: DIVMTQTPLSLPVTPGEPASISCRSSQSLLDSDDGNTYLDWYLQKPGQSPQLLIYTLSYRASGVPDRFSGSGSGTDFTLKISRVEAEDVGVYYCMQHLEFPLTFGGGTKVEIK

Target: T1, DLL3 (target in the Fab-Zap …)
Test: cell-based or functional assay

Binder	Percent Max Killing (Fab-Zap internalization assay, 10 ug/ml) [%]
B1	70
B2	46
B3	67
B4	61.9
B5	68
B6	61
B7	69.1
B8	59.5
B9	65.2
B10	89
B11	64
B12	80.3
B13	88
B14	86
B15	20
B16	71
B17	68
B18	74
B19	88.7
B20	82
